Data on two molecules can be found in patent publication EP3444273A1 (Medicinal Bioconvergence Research Center, dated 2019).

Ends that are not written are not given here.

The target in one assay is T1, wild-type AIMP2 protein (human, UniProt Q13155 1-320).
T1 construct: Endogenous protein of H460 cell lysate; also called wild-type (WT) AIMP2
T1 sequence (looked up): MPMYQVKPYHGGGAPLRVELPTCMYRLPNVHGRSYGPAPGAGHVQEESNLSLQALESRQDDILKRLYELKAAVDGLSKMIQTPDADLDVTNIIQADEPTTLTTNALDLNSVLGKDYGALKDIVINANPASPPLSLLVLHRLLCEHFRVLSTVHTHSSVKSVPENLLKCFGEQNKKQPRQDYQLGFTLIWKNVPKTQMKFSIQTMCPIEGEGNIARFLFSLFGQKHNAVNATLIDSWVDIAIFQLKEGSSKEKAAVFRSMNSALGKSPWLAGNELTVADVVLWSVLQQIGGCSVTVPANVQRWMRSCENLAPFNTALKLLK
Description: Western blot of H460 cell lysate.

Assay [1] has as its target T2, BSA-conjugated AIMP2-DX2 antigen peptide (human, not fully specified (residue 12); also: C-terminal Cys conjugated to BSA carrier).
T2 construct: The BSA carrier is not written as a chain; also called AIMP2-DX2 antigen peptide (the same peptide used in the rabbit immunization, conjugated to BSA)
T2 peptide: GHVQDYGALKDC
Description: ELISA, plate coated with BSA-conjugated antigen peptide, periplasmic extract.

Assay [2] concerns the target T3, AIMP2-DX2 antigen peptide (human, not fully specified).
T3 construct: Used in solution for pre-adsorption in Western blots (100 ug/ml) and as analyte in SPR
T3 peptide: GHVQDYGALKD
Description: antigen pre-adsorption, Western blot of HEK293T lysate, peptide at 100 ug/ml. (In general: Immunoblotting shows a protein as a band on a membrane.)

Assay [3] deals with T3, AIMP2-DX2 antigen peptide. The assay is described as follows: SPR, H5 IgG coated on CM5 chip, peptide flowed at various concentrations.

B1: H5 Fab (Fab, V domains shown)
VH: QEQLVESGGGLVTPGGTLTLTCTASGFTISSYHMTWVRQAPGKGLEWIGVISNSGGTSYANWAKGRFTISKTSTTVDLKITSPTTEDTATYFCVRGVPGINSNLWGQGTLVTISS
VL: AQVLTQTPSSVSAAVGGTVTINCQSSQSVYSGNWLAWYQQKPGQPPKLLIYSTSTLASGVPSRFKGSGSGTQFTLTVSDLECDDAATYYCAGDYDGYKNAFGGGTKVVVKR
notes: Expressed from pComb3XTT in E. coli and used as periplasmic extract; Detected with anti-HA tag or anti-human Fab secondary antibody, so a tag may be present; also called antibody (Fab) of clone H5; rabbit/human chimeric Fab
As for B1, the results for the binding result (with wild-type AIMP2 protein; in assay [1]; in assay [2]) were “no binding”, “binds” and “binds”, respectively.

B2: H5 IgG antibody (antibody, V domains shown)
VH: QEQLVESGGGLVTPGGTLTLTCTASGFTISSYHMTWVRQAPGKGLEWIGVISNSGGTSYANWAKGRFTISKTSTTVDLKITSPTTEDTATYFCVRGVPGINSNLWGQGTLVTISS
VL: AQVLTQTPSSVSAAVGGTVTINCQSSQSVYSGNWLAWYQQKPGQPPKLLIYSTSTLASGVPSRFKGSGSGTQFTLTVSDLECDDAATYYCAGDYDGYKNAFGGGTKVVVKR
notes: also called H5 antibody (IgG); H5 antibody
Regarding B2, the binding result in assay [3] is “binds”.
